Assay results from patent publication US20130136743A1 (LABORATOIRE FRANCAIS DU FRACTIONNEMENT ET DES …, published 2013).
Substitutions are numbered along the chain they refer to. In names and notes the source's numbering stands.

T1: AMHRII receptor expressed on cells (cov434-AMHRII, Asc 1, META 2815) (human, UniProt Q16671 18-573)
T1 sequence (looked up): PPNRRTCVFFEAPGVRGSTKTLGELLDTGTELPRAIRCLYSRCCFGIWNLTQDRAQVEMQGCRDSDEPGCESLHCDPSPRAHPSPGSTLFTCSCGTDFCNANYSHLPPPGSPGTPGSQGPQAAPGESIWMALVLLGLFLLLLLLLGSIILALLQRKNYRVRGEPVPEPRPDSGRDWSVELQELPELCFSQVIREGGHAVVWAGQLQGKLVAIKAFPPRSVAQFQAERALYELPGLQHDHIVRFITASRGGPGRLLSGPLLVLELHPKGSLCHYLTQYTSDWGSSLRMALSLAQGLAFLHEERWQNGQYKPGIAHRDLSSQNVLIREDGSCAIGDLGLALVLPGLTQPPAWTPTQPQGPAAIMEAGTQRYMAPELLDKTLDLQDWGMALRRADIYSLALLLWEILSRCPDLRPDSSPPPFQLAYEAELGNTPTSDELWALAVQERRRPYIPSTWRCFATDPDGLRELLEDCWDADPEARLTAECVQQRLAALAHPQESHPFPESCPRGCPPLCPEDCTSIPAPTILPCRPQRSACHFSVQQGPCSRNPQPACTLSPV

T2: Epitope peptide GGGGNLTQDRAQVEMQGSR
T2 peptide: GGGGNLTQDRAQVEMQGSR

B1: mVH-VL, murine antibody mLFB112 expressed as scFv on phage (scFv, part only; not given: scFv linker, part only)
scFv, part: QVQLQQSGPELVKPGASVRMSCKASGYTFTSYHIHWVKQRPGQGLEWIGWIYPGDDSTKYNEKFKGKTTLTADKSSSTAYMLLSSLTSEDSAIYFCTRGDRFAYWGQGTLVTVSAQIVLTQSPAIMSASLGEGITLTCSASSSVRYIHWYQQKSGTSPKLLIYSTSNLASGVPSRFSGSGSGTFHSLTISSVEAEDAADYYCLQWSSYPWTFGGGTKLEIK
B2: huVH-VL, humanized antibody huLFB112 expressed as scFv on phage (scFv, part only; not given: scFv linker and phage partner, V domains shown, not shown: another chain or arm of the molecule; large carriers; small tags and cut ends)
VH: QVQLVQSGAEVKKPGASVKVSCKASGYTFTSYHIHWVRQAPGQRLEWMGWIYPGDDSTKYSQKFQGRVTITRDTSASTAYMELSSLRSEDTAVYYCTRGDRFAYWGQGTLVTVSS
VL: DIQMTQSPSTLSASVGDRVTITCRASSSVRYIAWYQQKPGKAPKLLIYSTSSLESGVPSRFSGSGSGTEFTLTISSLQPDDFATYYCLQWSSYPWTFGGGTKVEIK
B3: mutated humanized 12G4 antibody 3C-23K produced in YB2/0 (antibody, human IgG1, kappa, V domains shown)
VH: B2 VH with Q3R
VL: DIQMTQSPSTLSASVGDRVTITCRASSSVRYIAWYQQKPGKAPKLLTYPTSSLKSGVPSRFSGSGSGTEFTLTISSLQPDDFATYYCLQWSSYPWTFGGGTKVEIKR
notes: Chains without leader; also called 3C_23K YB2/0; 3C-23K-YB2/0
B4: mutated humanized 12G4 antibody 3C-23 produced in YB2/0 (antibody, human IgG1, kappa, V domains shown)
VH: B2 VH with Q3R
VL: B3 VL with K54E
notes: Chains without leader; Mutations VH-Q3R, VL-I177T/S179P; also called 3C_23 YB2/0; R901 3C23
B5: mutated humanized 12G4 antibody 6B-78 produced in YB2/0 (antibody, human IgG1, kappa, V domains shown)
VH: B2 VH
VL: B3 VL with T47I, P49S
notes: Chains without leader; Mutation VL-E184K; also called 6B_78 YB2/0; R901 6B78
B6: murine 12G4 monoclonal antibody (antibody, V domains shown)
VH: QVQLQQSGPELVKPGASVRMSCKASGYTFTSYHIHWVKQRPGQGLEWIGWIYPGDDSTKYNEKFKGKTTLTADKSSSTAYMLLSSLTSEDSAIYFCTRGDRFAYWGQGTLVTVSA
VL: QIVLTQSPAIMSASLGEGITLTCSASSSVRYIHWYQQKSGTSPKLLIYSTSNLASGVPSRFSGSGSGTFHSLTISSVEAEDAADYYCLQWSSYPWTFGGGTKLEIK
notes: also called mLFB112; original murine 12G4 antibody

Key:
[1] = biological target: T3, AMHR-II/Fc fusion protein (human, UniProt Q16671 18-149, limits assumed); assay: direct phage ELISA, ratio of specific binding; 3.00E+09 phages per well as printed
T3 construct: also called AMHR-II recombinant receptor expressed in the form of fusion protein with a region Fc; recombinant target; not shown: Fc region

[2] = biological target: T3, AMHR-II/Fc fusion protein; assay: direct phage ELISA, ratio of specific binding; 3.00E+10 phages per well as printed
[3] = biological target: T3, AMHR-II/Fc fusion protein; assay: direct phage ELISA, target coated at 500 ng/well; 3.00E+09 phages per well as printed
[4] = biological target: T3, AMHR-II/Fc fusion protein; assay: direct phage ELISA, target coated at 500 ng/well; 3.00E+10 phages per well as printed
[5] = biological target: T3, AMHR-II/Fc fusion protein; assay: direct phage ELISA, ratio of specific binding; 3.00E+09 phages per well as printed (third row)
[6] = biological target: T3, AMHR-II/Fc fusion protein; assay: direct phage ELISA, ratio of specific binding; 3.00E+09 phages per well as printed (second row)
[7] = biological target: T3, AMHR-II/Fc fusion protein; assay: direct phage ELISA, ratio of specific binding; 3.00E+10 phages per well as printed (second row)
[8] = biological target: T3, AMHR-II/Fc fusion protein; assay: direct phage ELISA, target coated at 500 ng/well; 3.00E+09 phages per well as printed (third row)
[9] = biological target: T3, AMHR-II/Fc fusion protein; assay: direct phage ELISA, target coated at 500 ng/well; 3.00E+09 phages per well as printed (second row)
[10] = biological target: T3, AMHR-II/Fc fusion protein; assay: direct phage ELISA, target coated at 500 ng/well; 3.00E+10 phages per well as printed (second row)
[11] = biological target: T1, AMHRII receptor expressed on cells …; assay: cell-based or functional assay
[12] = biological target: T1, AMHRII receptor expressed on cells …; assay: cell-based or functional assay; remark: listed apart in the source
[13] = biological target: T1, AMHRII receptor expressed on cells …; assay: cell-based or functional assay; remark: listed apart in the source
[14] = biological target: T3, AMHR-II/Fc fusion protein; assay: SPR, BIAcore X100; ratio against the chimeric 12G4
Protocol: (§1) The affinity of the antibodies for their antigen, AMHR-II, is determined by the SPR (Surface Plasmon Resonance) technique on BIACore X100 (BIACore, GE Healthcare). The AMHR-II recombinant receptor, expressed in the form of fusion protein with a region Fc, is immobilized by covalent coupling between its amine functions and the carboxyl groups of dextran activated in succinimide esters, present on the surface of the type CM5 sensor chip. The COOH groups of the sensor chip are activated for 7 minutes with EDC/NHS mixture (0.1 M of N-hydroxysuccinimide and 0.1 M of 3-(N,N-dimethylamino)propyl-N-ethylcarbodiimide) at a flow of 10 μl/min then the AMHR-II/Fc fusion protein, diluted to 5 μg/ml in 10 mM sodium acetate buffer, pH 4.0, is injected at […] on track 2 of the sensor chip so as to reach 300 RU. The ester groups that have not reacted with the amines of the fusion protein are deactivated by injection of a solution of ethanolamine-HCl 1M, pH 8.5 for 7 min at a flow of 10 μl:min. Track 1, serving as negative control, was activated and deactivated like track 2.
(§2) All the measurements are carried out at 25° C. The antibodies to be analysed are diluted in HBS-EP running buffer (BIACore, GE Healthcare) at concentrations from 6.25 to 3333 nM and injected on the sensor chip for 2 min at a flow of 30 μl/min. The dissociation step is monitored for 10 min and then the surface is regenerated by injection of 10 mM glycine buffer, pH 1.5 for 30 s at 10 μl/min.
(§3) The sensorgrams obtained are analysed using the 1:2 kinetic model of the BIAevaluation 3.1 software.

[15] = biological target: T3, AMHR-II/Fc fusion protein; assay: SPR, BIAcore X100; AMHR-II/Fc immobilised on CM5 chip, antibody injected; 25 C
Protocol: as §1, §2, §3

[16] = biological target: T1, AMHRII receptor expressed on cells …; assay: saturation binding of 125I-labelled antibody to cov434-AMHRII cells, Scatchard analysis
Protocol: Briefly, KD was determined by the saturation method, by adding increasing doses of radiolabelled antibody to a constant number of cov434-AMHRII cells. […] For each antibody, fourfold dilutions were carried out in PBS/BSA 0.5% from the solutions of labelled and unlabelled antibody (84.4 μg/ml). The nonspecific fixation was evaluated by incubating the cells in the presence of a 100 times molar excess of unlabelled antibody.
After incubation, the samples were frozen in liquid nitrogen and then analysed in a gamma counter. The specific fixation was determined by subtracting the fixation obtained in the presence of an excess of unlabelled antibody.

[17] = biological target: T2, Epitope peptide GGGGNLTQDRAQVEMQGSR; assay: method not stated; Example 2, heading names cov434-AMHR-II cells and the epitope peptide

Binder | OD 450 nm, +covering [3] [OD] | OD 450 nm, Diff (specific binding) [3] [OD] | OD 450 nm, +covering [4] [OD] | OD 450 nm, Diff (specific binding) [4] [OD] | 50% relative, ADCC on the COV434-AMHRII line (chimeric antibody = 1) [11] | % of lysis of ASC1 cells (ADCC with NK cells, LDH release) at 0.001 ng/ml antibody [12] [%] | % of lysis of ASC1 cells (ADCC with NK cells, LDH release) at 0.005 ng/ml antibody [12] [%] | % of lysis of ASC1 cells (ADCC with NK cells, LDH release) at 0.05 ng/ml antibody [12] [%] | % of lysis of ASC1 cells (ADCC with NK cells, LDH release) at 0.5 ng/ml antibody [12] [%] | % of lysis of ASC1 cells (ADCC with NK cells, LDH release) at 5 ng/ml antibody [12] [%] | % of lysis of ASC1 cells (ADCC with NK cells, LDH release) at 50 ng/ml antibody [12] [%] | % of lysis of ASC1 cells (ADCC with NK cells, LDH release) at 500 ng/ml antibody [12] [%] | % of lysis of ASC1 cells (ADCC with NK cells, LDH release) at 5000 ng/ml antibody [12] [%] | EC50 (ng/ml), ADCC on ASC1 cells [13] [ng/mL] | Emax (% of lysis), ADCC on ASC1 cells [13] | KD chimeric/KD mutated [14] | Kd [15] [nM] | koff [15] [s⁻¹] | kon [15] [M⁻¹ s⁻¹] | Kd [16] [nM] | other results
B1 | 1.57 | 1.51 | 2.81 | 2.65 | – | – | – | – | – | – | – | – | – | – | – | – | – | – | – | – | Ratio mVH-VL/huVH-VL [1]: 4.7; Ratio mVH-VL/huVH-VL [2]: 2.4; Ratio mVH-VL/huVH-VL [5]: 5.2; Ratio mVH-VL/huVH-VL [6]: 5.2; Ratio mVH-VL/huVH-VL [7]: 3.6; OD 450 nm, +covering [8]: 0.495 OD; OD 450 nm, Diff (specific binding) [8]: 0.446 OD; OD 450 nm, +covering [9]: 0.946 OD; OD 450 nm, Diff (specific binding) [9]: 0.887 OD; OD 450 nm, +covering [10]: 2.19 OD; OD 450 nm, Diff (specific binding) [10]: 2.11 OD
B2 | 0.395 | 0.323 | 1.25 | 1.1 | – | – | – | – | – | – | – | – | – | – | – | – | – | – | – | – | OD 450 nm, +covering [8]: 0.135 OD; OD 450 nm, Diff (specific binding) [8]: 0.086 OD; OD 450 nm, +covering [9]: 0.226 OD; OD 450 nm, Diff (specific binding) [9]: 0.17 OD; OD 450 nm, +covering [10]: 0.689 OD; OD 450 nm, Diff (specific binding) [10]: 0.593 OD
B3 | – | – | – | – | 0.84 | 0 | 8 | 10 | 26 | 51 | 67 | 79 | 75 | 1.7 | 79 % of lysis | 10 | 21 | 0.00086 | 40000 | 5.3 | EC50, ADCC on Asc 1 cells [11]: ~2.24 ng/mL; EC50, ADCC on META 2815 cells [11]: 30.5 ng/mL; fold cytotoxic activity on Asc 1 cells against 3C-23K-CHO [11]: ~40 fold; fold cytotoxic activity on META 2815 cells against 3C-23K-CHO [11]: ~146 fold; fold affinity against the original murine 12G4 antibody [16]: ~3 fold
B4 | – | – | – | – | 6.41 | 0 | 8 | 9 | 13 | 35 | 46 | 52 | 63 | 6.3 | 65.5 % of lysis | 2.3 | 92 | 0.0033 | 36000 | 7.33 | –
B5 | – | – | – | – | 36.9 | 0 | 14 | 5 | 3 | 28 | 42 | 48 | 53 | 5.38 | 51.9 % of lysis | 2.6 | 82 | 0.0013 | 16000 | 6.68 | –
B6 | – | – | – | – | – | – | – | – | – | – | – | – | – | – | – | – | – | – | – | 15.4 | Kd [17]: ~100 nM; koff [17]: 0.00147 s⁻¹
